Data set [1] addresses T1, APOBEC3G (A3G) (Homo sapiens, UniProt Q9HC16 SEQ:1-384). Nature of the data set: EMSA; 8 min 37 C; RPA pre-binding inhibits monomeric complex (FIG. 5C). Particulars: tags: C-terminal Myc-His6, expressed in 293T cells; chain copies: monomer to multimer (stated); label: 3' dATP-biotin (TdT). Here is the method: (§1) FIG. 3B. Electro-mobility shift assay (EMSA). The indicated proteins were incubated with biotinylated SC oligonucleotides (80 nt) for 8 min at 37° C. and resolved by native PAGE. Acrylamide gels were transferred to nylon membranes and probed by enhanced chemiluminescence.

For the next data set, the target named is APOBEC3G W285A (Homo sapiens, UniProt Q9HC16 SEQ:1-384). Nature of the data set: EMSA; binding similar to wild type. Particulars: tags: C-terminal His6, expressed in 293T cells; label: 3' dATP-biotin (TdT). How it is done: as §1
(In general: In EMSA bound probe runs differently from free probe, usually more slowly.)

In data set [2] the target is T1, APOBEC3G (A3G). Nature of the data set: EMSA; 8 min RT. Particulars: tags: C-terminal Myc-His6, expressed in 293T cells; chain copies: monomer to multimer (stated). Here is the method:
(§2) FIG. 2D. A3G end-dependent association with ssDNA was assessed by electro-mobility shift assay (EMSA). S₁₆₀ oligonucleotide ends (3′, 5′, 3′+5′) were annealed to short complementary oligonucleotides (30 nt) and then incubated with A3G or BSA for 8 min at room temperature (RT). Acrylamide gels were stained with SYBR gold nucleic acid stain.

Data set [3] deals with T1, APOBEC3G (A3G). Description: EMSA; either 3' or 5' ssDNA terminus required; 5' preference. Particulars: tags: C-terminal Myc-His6, expressed in 293T cells, chain copies: monomer to multimer (stated), 3' end 30 nt duplex. Here is the method: as §2

T1 sequence (Q9HC16 whole entry): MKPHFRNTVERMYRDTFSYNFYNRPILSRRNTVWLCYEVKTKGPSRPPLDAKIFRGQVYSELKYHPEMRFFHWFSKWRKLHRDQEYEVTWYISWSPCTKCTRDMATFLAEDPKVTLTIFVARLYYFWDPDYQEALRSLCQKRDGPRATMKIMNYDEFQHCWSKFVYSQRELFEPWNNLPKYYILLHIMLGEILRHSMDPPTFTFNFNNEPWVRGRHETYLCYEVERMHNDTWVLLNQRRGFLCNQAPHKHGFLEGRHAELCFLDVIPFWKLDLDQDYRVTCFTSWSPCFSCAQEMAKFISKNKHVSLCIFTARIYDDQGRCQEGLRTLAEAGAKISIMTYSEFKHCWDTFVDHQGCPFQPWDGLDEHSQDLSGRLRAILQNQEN
APOBEC3G W285A, sequence (Q9HC16 whole entry W285A): as the sequence (Q9HC16 whole entry) above, with W285A counted along it

B1: SC (ssDNA)
DNA: GGATTGGTTGGTTATTTGTTTAAGGAAGGTGGATTAAAGGCCCATAAGGTGATGGAAGTTATGTTTGGTAGATTGATGG
For the molecule B1, the binding result with APOBEC3G (A3G) [1] and with APOBEC3G W285A was “binds” in each case.

B2: S160 (ssDNA)
DNA: GGATTGGTTGGTTATTTGTTTAAGGAAGGAAGAAGGAAGGCCCAATAAGGGAAGGCCCAATAAGTGGGAAGGCCCAATAAGTGAATTAAATAAGTGATTGATAAATAAGTGATTGATAAGTTGATTAAATAGTTGGAAGTTATGTTTGGTAGATTGATGG
For B2, in the data set with APOBEC3G (A3G) [2], the binding result is listed as “binds”.

B3: S160 with 3' end double-stranded (mixed)
DNA 1: B2 DNA
DNA 2: CCATCAATCTACCAAACATAACTTCCATCA
Take B3: the binding result in the data set with APOBEC3G (A3G) [3] is recorded as “binds”.

Values taken from patent US20150111836, “CELLULAR APOBEC3 PROTEINS AND MODULATORS THEREOF FOR REGULATING DNA REPAIR PROCESSES AND TREATING PROLIFERATIVE DISEASES” (YISSUM RESEARCH DEVELOPMENT COMPANY OF THE HEBREW …, published 2015).
